± gives the standard deviation of the averaged measurements.
Test system: ATP
Assay: switch fluorescence ratio, 500 uM ATP over buffer (Cy3 cluster intensity, sum of 5 cycles each) (fold (ratio)); higher = stronger signal-on switching upon ATP binding; sequences stand for … in TCGTCGGCAGCGTCAGATGTGTATAAGAGACAGTTTTTTTTTTTTTTTTTTTTTTTTT…TC
Conditions: aptamer strand: ATP DNA aptamer (quencher-CACCTGGGGGAGTATTGCGGAGGAAGG + anchor), 100 nM annealed; ATP concentration: 500 uM
How it was run: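 Clusters with intensities outside 100-1000 RFU were excluded. The remaining Cy3-labelled switching-strand clusters on a modified Illumina MiSeq flow-cell had been annealed to 100 nM quencher-labelled ATP aptamer and imaged in selection buffer, then after 15 min with 500 uM ATP at 22 °C, for five cycles separated by NaOH stripping and re-annealing. The fluorescence ratio, averaged per switch-domain sequence, is each cluster's summed target-cycle Cy3 intensity over its summed buffer-cycle Cy3 intensity.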
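Further: ATP exposure 15 min at 22 °C before imaging.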

| Sequence | switch fluorescence ratio |
| --- | --- |
| GTGGGGGTAA | 0.9692 ± 0.0039 |
| GTGGGGTACA | 0.996 ± 0.049 |
| GTGGGGTGTT | 0.985 ± 0.02 |
| GTGGGTCAGG | 1.01 ± 0.013 |
| GTGGGTGCAG | 1.03 ± 0.041 |
| GTGGGTGCGG | 0.979 ± 0.051 |
| GTGGGTTATC | 1.004 ± 0.007 |
| GTGGGTTGGG | 1.09 ± 0.058 |
| GTGGTAAGTT | 0.942 ± 0.026 |
| GTGGTAGGGA | 0.98 ± 0.019 |
| GTGGTATGGT | 1.02 ± 0.025 |
| GTGGTCCGCG | 1.017 ± 0.0015 |
| GTGGTCTGTG | 0.972 ± 0.018 |
| GTGGTGATAG | 0.9652 ± 0.0041 |
| GTGGTGCACG | 0.9971 ± 0.0026 |
| GTGGTGGAAA | 1 ± 0.0029 |
| GTGGTTAGAA | 0.9841 ± 0.0025 |
| GTGGTTAGGG | 1.01 ± 0.041 |
| GTGGTTAGGT | 1 ± 0.034 |
| GTGGTTATCG | 1.02 ± 0.043 |
| GTGGTTCCCG | 1 ± 0.0099 |
| GTGGTTGGCA | 0.968 ± 0.033 |

| Sequence | switch fluorescence ratio |
| --- | --- |
| GTGGTTTGAC | 0.99 ± 0.013 |
| GTGGTTTGGC | 1.01 ± 0.09 |
| GTGGTTTTTG | 0.968 ± 0.025 |
| GTGTAAACGT | 1.04 ± 0.05 |
| GTGTAAGGG | 1.03 ± 0.031 |
| GTGTAATTGG | 1.018 ± 0.0058 |
| GTGTACTCGA | 1.04 ± 0.019 |
| GTGTAGATTA | 1.02 ± 0.014 |
| GTGTAGGGAT | 0.964 ± 0.015 |
| GTGTATAGAT | 1.01 ± 0.011 |
| GTGTATTTTT | 0.99 ± 0.024 |
| GTGTCAACGT | 0.978 ± 0.017 |
| GTGTCAACTA | 0.987 ± 0.016 |
| GTGTCCGGTA | 0.983 ± 0.037 |
| GTGTCTGAGC | 0.966 ± 0.031 |
| GTGTGAACGG | 0.958 ± 0.018 |
| GTGTGACTCG | 1.03 ± 0.062 |
| GTGTGAGTTA | 0.992 ± 0.034 |
| GTGTGATTTT | 0.992 ± 0.028 |
| GTGTGCAACT | 1.02 ± 0.024 |
| GTGTGCTGTG | 1.01 ± 0.063 |
| GTGTGCTTAG | 1.027 ± 0.004 |

| Sequence | switch fluorescence ratio |
| --- | --- |
| GTGTGCTTTG | 0.998 ± 0.048 |
| GTGTGGAGGT | 0.964 ± 0.016 |
| GTGTGGATTC | 0.998 ± 0.013 |
| GTGTGGGCTG | 1.0001 ± 0.0002 |
| GTGTGTCTCT | 0.999 ± 0.016 |
| GTGTTAACTG | 0.984 ± 0.028 |
| GTGTTAGGGA | 1.01 ± 0.015 |
| GTGTTAGTCG | 1.02 ± 0.1 |
| GTGTTATGGG | 0.978 ± 0.037 |
| GTGTTATTGA | 0.97161 ± 0.00039 |
| GTGTTATTTT | 0.998 ± 0.053 |
| GTGTTCAACG | 0.994 ± 0.04 |
| GTGTTCGACG | 0.995 ± 0.056 |
| GTGTTCGAGT | 0.986 ± 0.034 |
| GTGTTCTTAT | 1.01 ± 0.011 |
| GTGTTGGGGG | 0.984 ± 0.039 |
| GTGTTTAAAA | 0.995 ± 0.013 |
| GTGTTTAGCT | 0.992 ± 0.044 |
| GTGTTTGGGT | 0.978 ± 0.03 |
| GTGTTTGGTT | 1.01 ± 0.053 |
| GTGTTTTTGA | 1.01 ± 0.034 |
| GTTAAAAGGC | 0.986 ± 0.023 |

| Sequence | switch fluorescence ratio |
| --- | --- |
| GTTAACCGGA | 1.01 ± 0.012 |
| GTTAACGCGT | 1.02 ± 0.02 |
| GTTAATGTCG | 1.056 ± 0.0053 |
| GTTACAAGAG | 0.9955 ± 0.0077 |
| GTTACACTCA | 1.032 ± 0.002 |
| GTTACGAGTT | 0.977 ± 0.012 |
| GTTACTGGAA | 1.04 ± 0.02 |
| GTTACTGTTC | 0.98 ± 0.13 |
| GTTACTTGTA | 0.978 ± 0.025 |
| GTTAGAAATG | 1.01 ± 0.011 |
| GTTAGAAGGT | 1 ± 0.018 |
| GTTAGAAGTG | 0.9855 ± 0.006 |
| GTTAGACGGT | 1.02 ± 0.041 |
| GTTAGACTCA | 1.01 ± 0.014 |
| GTTAGAGAGG | 0.9779 ± 0.0078 |
| GTTAGAGCGG | 1.02 ± 0.031 |
| GTTAGCGGGG | 0.9823 ± 0.0048 |
| GTTAGGAATT | 0.985 ± 0.032 |
| GTTAGGAGTC | 0.992 ± 0.018 |

Reference: the supplement of paper PMC10126150
